Laboratory results taken from the supplement of paper PMC12042874.
± gives the uncertainty stated by the source.

assay: amyloid nucleation score (Sup35N fusion, yeast selection) (log enrichment); library NNK2; higher = more nucleation; inactive = no reads after selection
How it was run: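 Peptides of 20 random codons fused to Sup35N were expressed in psi-negative yeast, induced 24 hours with 100 μM copper sulfate, then grown 7 days at 30°C on medium lacking adenine and uracil. Input and output plasmid inserts were Illumina-sequenced. Nucleation score is the DiMSum log enrichment of output over input reads, centred on the mode score of non-aggregating sequences, excluding sequences with under 100 input reads. Random libraries had three technical output replicates.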

Point of comparison: LIYPANVWFGFYAEAGEVAQ, amyloid nucleation score 4.21 ± 0.044. Against it:
- LHCLRDIIKRNKDSFPQMWG — lower, -0.607 ± 0.33
- LHGSGMENALSVPDMEQFPA — lower, -0.159 ± 0.63
- LHLRNVMVQ — lower, -0.681 ± 0.31
- LHSSSHVGGYSVGSRSFIHG — lower, 0.294 ± 1.1
- LHSYPVKYGSRKDTRAKCGG — lower, 0.605 ± 0.29
- LIADSCFFIQGDHPMLSELY — lower, 0.888 ± 0.32
- LIDLKGQRSHGVTKGLTDFP — lower, -0.406 ± 0.36
- LIFNYRVFLSFSW — lower, -0.356 ± 1.1
- LIFYGSCIFQRFRIGVLSSG — lower, -0.09 ± 0.65
- LIGCLEQG — lower, -0.156 ± 0.56
- LIGIYLPWSL — lower, -0.735 ± 0.45
- LIGVMGRCPGVLHLRSFVRD — lower, 0.163 ± 0.37
- LILLNFTADSRGRRMLCCAW — lower, -0.584 ± 0.76
- LILRGDS — lower, -0.913 ± 0.4
- LILWRA — lower, 0.456 ± 0.39
- LIMRIVWGGLQDQGSVRSSR — lower, 0.855 ± 0.35
- LIRVILDGGKGKAGNTWVLQ — higher, 5.17 ± 0.098
- LIRVYDSDATTIDRLGVCRW — lower, 0.726 ± 0.35
- LITFLCFYHLKHYGLHTVGW — lower, -1.03 ± 0.36
- LITRVSSYCCWCLGFTIWAL — lower, -0.77 ± 1
- LIVCLFISFFAYELCYESAF — lower, 0.403 ± 0.62
- LIVSPCN — lower, -0.059 ± 0.26
- LIYWCHAFVKT — lower, -1.27 ± 0.53
- LKGYSQVMRSSIGLWCFRKD — lower, -0.547 ± 0.49
- LKLGFRIQLPLLSYGYPFLW — lower, -1.29 ± 0.39
- LKLTVPKDRRKKMKGRVALI — lower, -0.064 ± 0.76
- LKTIMCFCQIYLFNSDPVHF — lower, 3.37 ± 0.11
- LLAKSLDTGILD — higher, 6.487 ± 0.025
- LLALSFLTVVFEFCLNSMMG — lower, -1.28 ± 0.62
- LLDSPEWWYVLCATNWVYYM — lower, 2.88 ± 0.096
- LLFIVCRISLNIVGQVA — lower, -0.137 ± 0.53
- LLFSLYDYRQIDFNSGHRHV — higher, 4.37 ± 0.056
- LLGCYNYSFRWDSRASASR — lower, -0.207 ± 0.55
- LLGPYKAHTQKYCWSSYV — lower, -0.287 ± 0.56
- LLGWPRLYLWTE — lower, 0.402 ± 0.42
- LLHDDVNTYLVRTVRR — lower, 0.322 ± 0.31
- LLINDKCPYERMAGQWLFGS — lower, 0.268 ± 0.65
- LLKFRVCPW — higher, 4.5 ± 0.086
- LLKLTYTSM — higher, 7.032 ± 0.037
- LLLINFSYNALTKVRSEEYL — lower, 3.86 ± 0.084
- LLLINLLFSASKLALSM — lower, -0.679 ± 1.1
- LLLKPMFRVIILMYARVCMY — lower, -1.08 ± 1.1
- LLLLTHYEAITR — lower, 0.305 ± 0.43
- LLMFAMYIQIRLLSTATYIV — lower, -0.564 ± 0.79
- LLMQYPSLVMVAGRFLVANL — lower, -0.082 ± 0.5
- LLMRVFRGESR — lower, -1.02 ± 0.49
- LLMVFHTTKY — higher, 6.665 ± 0.026
- LLNALCMWMPM — higher, 6.876 ± 0.051
- LLQILTNQKVNGTCSQRF — lower, -1.48 ± 0.78
- LLQIQCICEGMRQWMLKYYY — lower, -0.994 ± 1.1
- LLSECWLESGPSGASTC — lower, 1.5 ± 0.5
- LLSNFGHVRNSSDKLLLFWS — lower, 2.9 ± 0.18
- LLSSSTIIHLRMCMIHGSFW — lower, 0.791 ± 0.67
- LLSVVKCACEMRTTKAVIGA — lower, 2.05 ± 0.35
- LLSWVHR — lower, -0.357 ± 0.5
- LLTGQALFGRASY — lower, 0.122 ± 0.37
- LLVKTNYVCGALTNGRMNGT — lower, 2.12 ± 0.081
- LLWNVGIVYSHMQVFVMRRY — lower, 1.23 ± 0.13
- LLYEPFVWVYKHRYVVTGYS — lower, -1.76 ± 0.76
- LLYTCFGVREVQMVTYRNAS — lower, 4 ± 0.063
- LMAKLPAINEYPPF — lower, -0.04 ± 0.56
- LMATHQPGTFMAGCTTGSEH — lower, 0.914 ± 0.18
- LMGLFREFFRYILFGCINQF — lower, -0.419 ± 0.27
- LMISCSYICSVVDYHLMGGS — lower, 3.55 ± 0.06
- LMNMSSRSTQCNNQG — lower, -0.139 ± 0.55
- LMRRHRA — lower, 0.954 ± 0.25
- LMSMVCSESL — lower, -0.555 ± 0.35
- LMSSLFPLSSACY — lower, -0.545 ± 0.38
- LMYFMNGL — lower, 0.045 ± 0.63
- LMYVGFTRMRKKINRKVYLV — lower, 3.19 ± 0.1
- LNCFYEPTSGSKLYTLRPAF — lower, -0.107 ± 1
- LNCVFLSLSQTGGSCELDFV — higher, 7.007 ± 0.043
- LNFDLLTMFWT — lower, 0.182 ± 0.79
- LNGYATLCYPVILSRIVYGP — lower, 4.03 ± 0.043
- LNIYF — lower, 3.13 ± 0.11
- LNLIHR — lower, 0.153 ± 0.79
- LNLILIDFKTSRCVERPFRE — higher, 7.052 ± 0.051
- LNNGCCMSLPVPTRPDDRDK — lower, 0.356 ± 0.8
- LNPRNQCERRCFSVSGLKWY — lower, -0.899 ± 0.64
- LNRVQLNLRGQRITLSHYQI — lower, -0.536 ± 1.1
- LNSFVPVDSRVVTSAEWYAG — lower, 0.889 ± 0.23
- LNVHCAGCCANWPLC — higher, 9.041 ± 0.026
- LNVLISYMHRVWRYIVSAR — lower, 0.362 ± 0.35
- LNVTSLLIVRLRCVFLHPTD — lower, 2.15 ± 0.44
- LNVWRLFRRWWEWRRDCEFA — lower, 0.435 ± 0.37
- LNYALLVEFCLCLNPDNNSS — higher, 8.57 ± 0.055
- LPFLPSCVVEKQVEYVWIRG — lower, 0.332 ± 0.25
- LPLWLIDIALFLSFCIVGQS — lower, -0.369 ± 1.1
- LPQVPRVFRS — lower, -0.06 ± 1.1
- LPTIGVWLTRPRVCFLSYSV — lower, 0.045 ± 0.63
- LPWHICLVHPR — lower, 1.81 ± 0.078
- LPWLWQLTFPFWA — lower, 0.582 ± 0.37
- LPYRSCLWFFFDIRNDVRVG — lower, 2.25 ± 0.12
- LQASDKGKLLRTIPLRHYVP — lower, 1.02 ± 0.33
- LQDAHHSVVCVRQSCYERLG — lower, -0.187 ± 0.65
- LQDLTWRLCFKVWCDHSPEN — within error, 4.08 ± 0.091
- LQVTPIIPYCVSELYMYGGM — lower, -0.097 ± 0.79
- LRAGTKWTNPFEQVYMTWCG — lower, 0.044 ± 1.1
- LRAHFWGDD — lower, 0.335 ± 0.31
- LRFCYKEATV — lower, 0.016 ± 0.65
- LRFLVGVHAAYYIHTS — lower, -0.649 ± 0.79
- LRFVEPTTCVWGRDLFGAHS — lower, 0.545 ± 0.53
- LRHWCE — lower, 0.218 ± 0.18
- LRIVICT — lower, -1.63 ± 0.62
- LRLGRLPFMRSISVTCKNEL — lower, 1.91 ± 0.32
- LRLLQVVGVCCSGTWVDGCW — higher, 6.074 ± 0.04
- LRLTRVYSSYRESVKKKI — lower, 0.418 ± 0.21
- LRLTYSWSYSCLLITNQRQN — lower, -0.009 ± 0.65
- LRNDDIY — lower, -0.533 ± 0.39
- LRNLS — lower, -0.919 ± 1
- LRRVFQISERRNKLWLYEEC — lower, 0.6 ± 0.74
- LRRYYQCGTRLLIRFRMLEV — lower, 1 ± 0.34
- LRSCSCIGKLDEEPGGFACA — lower, -0.956 ± 0.78
- LRTISCIITLVGWITASTKH — lower, 0.124 ± 0.62
- LRYNIMWKQHNATAYDEYRA — lower, 3.65 ± 0.12
- LSAGPALHSYLSGNVFSIEL — lower, 2.69 ± 0.069
- LSCCYDDHRLQGRCGSGRFH — lower, 0.946 ± 0.27
- LSCLK — lower, -0.344 ± 0.28
- LSCRWHCIVTLDVAAYNEPE — higher, 5.765 ± 0.044
- LSEMYTFCEDSRAFTVYWTF — lower, -1.02 ± 0.45
- LSGLEDMSISSNDYSSDVAR — lower, 0.45 ± 0.8
- LSGRCFFNVLLINCKRTERI — lower, 2.1 ± 0.19
- LSIHLQRTQWYLLFEW — lower, 0.01 ± 0.39
- LSKCHCNILCVLMTCMWHLY — lower, 0.333 ± 0.46
- LSKLNGGSSVTSV — lower, 0.665 ± 0.2
- LSKRIDSRDMLGSGNHRCLL — lower, -0.655 ± 0.64
- LSKSVLKNTWGVYVI — lower, -0.358 ± 0.79
- LSLFSYPLHAPFLTMVSWPY — lower, -0.78 ± 0.78
- LSLMHAQHSTMLDNSMTM — lower, 0.621 ± 0.56
- LSLNG — lower, -0.955 ± 0.39
- LSMTEWVFSKGNRALAVYYM — lower, -1.39 ± 0.61
- LSMVDCGASDGLEQVFGLAG — lower, 0.14 ± 0.33
- LSNEAWFGQGMLDGWGGGEG — lower, 0.514 ± 0.56
- LSNRSYFTSTAWYEKNRPA — lower, -0.293 ± 0.26
- LSPRNPYAFVSAISDRIM — lower, -0.97 ± 0.63
- LSQGLIKRMYQHMCMKCVGF — lower, -0.08 ± 0.35
- LSSCLHEIRDSVVVRVVVVY — lower, -0.684 ± 0.5
- LSSTRDR — lower, -1.24 ± 0.48
- LSSTYRC — lower, -0.24 ± 0.39
- LSSWS — lower, -0.611 ± 0.44
- LSVAFRVW — lower, -0.55 ± 0.49
- LSVGLNKYRNA — lower, -0.919 ± 0.76
- LSVPRIFGSFVWVRQ — lower, -0.633 ± 1.1
- LSVSPGSRDLREPEDSFMWS — lower, -0.05 ± 0.3
- LTAWIC — lower, 0.285 ± 1
- LTCLLVRCSFVRCCVERPWS — lower, -0.732 ± 0.54
- LTCVSAR — lower, 1.2 ± 0.16
- LTFACSVLL — lower, 3.1 ± 0.092
- LTHIKDRVELLLGGQFISDT — lower, 0.011 ± 1.1
- LTICS — lower, -1.03 ± 0.78
- LTISRSNLGARPF — lower, -0.053 ± 0.39
- LTKGRSFCVNPFHITVDGQE — lower, -0.761 ± 0.23
- LTMCICWLTQCMT — higher, 6.283 ± 0.056
- LTMVWNKSFGEIHRLWVGNS — lower, -1.58 ± 0.62
- LTPIMAEKVLPYICQLLRGS — lower, -0.228 ± 0.55
- LTRGTFRIQCTLTSAWRVAR — higher, 4.62 ± 0.11

With LIYVDFHGIQVVCLYLCVHC the amyloid nucleation score was “inactive”.
For LLCGRYGMECFTRA, the amyloid nucleation score was “inactive”.
With LLLFVILCNSNWLCWPR the amyloid nucleation score was “inactive”.
For LLLYEMFSKVGLLFPSYFKY, the amyloid nucleation score was “inactive”.
With LMILRRVVKEPESANKFCGY the amyloid nucleation score was “inactive”.
For LPVQAYAS, the amyloid nucleation score was “inactive”.
In the case of LQKDYTSMH, the amyloid nucleation score is reported as “inactive”.
With LQRYRFSNACI the amyloid nucleation score was “inactive”.
In the case of LRVKKYTDFHELEVGLFFWL, the amyloid nucleation score is reported as “inactive”.
For LRVWVTAFFFSVMMCEQMFQ, the amyloid nucleation score was “inactive”.
In the case of LSARFHHAKFLNYSDSRVGQ, the amyloid nucleation score is reported as “inactive”.
For LSHILMI, the amyloid nucleation score was “inactive”.
For LSLLFH, the amyloid nucleation score was “inactive”.
With LSMTKLGVIGTSCNFLLW the amyloid nucleation score was “inactive”.
In the case of LSRSRVINIYASAGWRFLGS, the amyloid nucleation score is reported as “inactive”.
In the case of LTEVIVFYIRYMQARDRLIR, the amyloid nucleation score is reported as “inactive”.
